This data set concerns the molecule itself. Nature of the data set: crystal structure.

B1: Mycobacterium tuberculosis phosphatidylinositol phosphate synthase (PgsA1) (enzyme)
chain: MSKLPFLSRAAFARITTPIARGLLRVGLTPDVVTILGTTASVAGALTLFPMGKLFAGACVVWFFVLFDMLDGAMARERGGGTRFGAVLDATCDRISDGAVFCGLLWWIAFHMRDRPLVIATLICLVTSQVISYIKARAEASGLRGDGGFIERPERLIIVLTGAGVSDFPFVPWPPALSVGMWLLAVASVITCVQRLHTVWTSPGAIDRMAIPGKGDRENLYFQ
notes: also called M. tuberculosis PgsA1; Rv2612c
Regarding B1, the binding result was “binds”.

The record behind these values is article PMC6506517, “Structure of Mycobacterium tuberculosis phosphatidylinositol phosphate synthase reveals mechanism of substrate binding and metal catalysis” (Communications Biology, 2019).
